Results on 30 sequences are retold here after the nanobody polyreactivity screen of Harvey et al. (2022).

A short description of this data set: yeast display, Sf9 membrane polyspecificity reagent, FACS + sequencing; frameworks hold sequencing errors. Summed up: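 Using colony PCR, genes from sorted yeast display clones were amplified, then sequenced on MiSeq at 2 × 250 and filtered by CDR length. The clones had been stained with 10% biotinylated, detergent-solubilized Sf9 membrane reagent for 1 hour at 4 °C and sorted by FACS into low and high (top ~1%) gates on anti-HA and streptavidin fluorescence. Polyreactivity labels come from the gate of origin.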
Take “QVQLVESGGGLVQAGGSLRLSCAASGSIFVNYAMGWYRQAPGKERELVAAISWRGGITYADSVKGRFTISRDNAKNTVYLQLNSLKPEDTAVYYCARRGYGAGPSYRLGDYWGQGTQVTVSS”: the “polyreactivity (PSR sort gate)” value is on record as “low polyreactivity”.
Next, “QVQLVESGGGLVQAGGSLRLSCAASGSIFVNYAMGWYRQAPGKERELVAAITDGGRTYYADSVKGRFTISRDNAKNTVYLQMNSLKPEDTAVYYCAVDGIRYWGSRDESGYDYWGQGTQVTVSS”: “low polyreactivity”; “QVQLVESGGGLVQAGGSLRLSCAASGSIFVPNAMGRYRQAPGKERELVAAITSGGSTYYADSVKGRFTISRDNAKNTVYLQMNSLKPEDTAVYYCAADIGSQYFGHYDYWGQGTQVTVSS”: “high polyreactivity”.
“QVQLVESGGGLVQAGGSLRLSCAASGSIFVPYAMGWYRQAPGKERELVAAISYSGGTTYADSVKGRFTISRDNAKNTVYLQMNRVKPEDTAVYYCAARYWRRWRQSVSLDYWGQGSQVTVSS”: the “polyreactivity (PSR sort gate)” value is on record as “high polyreactivity”.
Next, “QVQLVESGGGLVQAGGSLRLSCAASGSIFVPYAMGWYRQAPGKERELVAAITRSSGSTYYADSVKGRFTISRDNAKNTVYLQMNSLKPEDTAVYYCAADFLLEFDYWGQGTQVTVSS”: “low polyreactivity”; “QVQLVESGGGLVQAGGSLRLSCAASGSIFVPYAMGWYRQAPWKERELVAAISRGGDTNYADSVKGRFTISRDKAKNTVYLQMNSLIPEDTAVSYCNRARHQYSRWHGGYYYWGQCTQVTVSS”: “low polyreactivity”; “QVQLVESGGGLVQAGGSLRLSCAASGSIFVPYAMGWYRQEPGKERELVAAISRRGGRTNYADSVKGRFTISRDNAKNTVYLQMNSLKPEDTAVYYCADGWRGVYYTRYDSWGQGTQVTVSS”: “high polyreactivity”.
“QVQLVESGGGLVQAGGSLRLSCAASGSIFVPYARGWYRQAPGKERELVAAISNGDSTYYADSVKGRFTISRDNAKNTVYLQMNSLKPEDTAVYYCAADAVKASVSYIVPYAAYDYWGQGTQVTVSS”: the “polyreactivity (PSR sort gate)” value is on record as “low polyreactivity”.
Next, “QVQLVESGGGLVQAGGSLRLSCAASGSIFVPYDMGWYRQAPGKERELVAVISTDDGTYYADSVKGRFTISRDNAKNTVYLQMNSLKPEDTAVYYCAADRWYREYDYWGQGTQVTVSS”: “low polyreactivity”; “QVQLVESGGGLVQAGGSLRLSCAASGSIFVQYAMGWCRQAPGKDRELVAAISDSGGSTYYADSVKGRFTISRDNAKNTVYVQMNSLKPEDTAVYYCAAVSTNSYSHRFGWGQGTQVTVSS”: “low polyreactivity”.
For “QVQLVESGGGLVQAGGSLRLSCAASGSIFVRNAMGWYRQAPGKERELVAAISGSGGRTYYADSVKGRFTISRDIAKNTVYLQMNSLKPEDTAVYYCARVPSGQLEYDYWGQGTQVTVSS”, the “polyreactivity (PSR sort gate)” value was “high polyreactivity”.
Regarding “QVQLVESGGGLVQAGGSLRLSCAASGSIFVRNGMGWYRQAPGKERELVASITSGTITYYADSVKGRFTISRDNAKNTVYLQMNSLKPEDTAVYYCAAYQYPADFKLYYYWGQGTQVTVSS”, the “polyreactivity (PSR sort gate)” value is “high polyreactivity”.
Next, “QVQLVESGGGLVQAGGSLRLSCAASGSIFVSEYVMGWYRQAPGKERELVARIRWSSGSTYYADSVKGRFTISRDNAKNTVYLQMNSLKPEDTAVYYCAKATSSFYHYRYDYWGQGTQVTVSS”: “low polyreactivity”; “QVQLVESGGGLVQAGGSLRLSCAASGSIFVSEYVMGWYRQAPGKERELVARIRWSSGSTYYADSVKGRFTISRDNAKNTVYLQMNSLKPEDTAVYYCNKDYYYVIGWTYHRSYHYDYWGQGTQVTVSS”: “low polyreactivity”.
For “QVQLVESGGGLVQAGGSLRLSCAASGSIFVSYAMGWYRQAPGKDRELVAAITSAGTTYYADSVKGRFTISRDNAKNTVYLQMNSLNPEDTAVYYCNTDASFKRTRVSPETEYGYWGQGTQVTVSS” the value was “low polyreactivity”; for “QVQLVESGGGLVQAGGSLRLSCAASGSIFVSYAMGWYRQAPGKERELVAAITRGGSTNYADSVKGRFTISRDNAKNTVYLQMNSLKPEDTAVYYCAAAYRRGGPPLDYWGQGTQVTVSS”, “low polyreactivity”.
As to “QVQLVESGGGLVQAGGSLRLSCAASGSIFVSYAMGWYRQAPGKERELVAAITSAGTTYYADSVKGRFTISRDNAKNTVYLQMNSLKQEDTAVYYCNTDASFKRTRVSPETEYGYWGQGTQVTVSS”, the “polyreactivity (PSR sort gate)” value was “low polyreactivity”.
Next, “QVQLVESGGGLVQAGGSLRLSCAASGSIFVSYAMGWYRQAPGKERELVAAITVSGGSTYYADSVKGRFTISRDNAKNTVYLQMNSLKPEDTAVYYCAADSWDDWVVEFYYWGQGTQVTVSS”: “low polyreactivity”.
For “QVQLVESGGGLVQAGGSLRLSCAASGSIFVSYAMGWYRQAPGKERELVAAITVSGGSTYYADSVKGRFTISRDNAKNTVYLQMNSMKPEDTAVYYCAADSWDDWVVEFYYWGQGTQVTVSS” the value was “low polyreactivity”; for “QVQLVESGGGLVQAGGSLRLSCAASGSIFVTNAMAWYSQAPGKERELVAAISWRGGSTYYADSVKGRFTISRDNAKNTVYLQMNSLKPEDTAVYYCNTYHPYWGSGFDYWGQGTEVTVSS”, “low polyreactivity”.
Next, “QVQLVESGGGLVQAGGSLRLSCAASGSIFVTNAMGWYRQAPGKERELVAAISGGADSTYADSVKGRFTISRDNAKNTVYFQMNSLKPEDTAVYYCAAKVRGWHYYYWGQGTQVTVSS”: “low polyreactivity”.
In the case of “QVQLVESGGGLVQAGGSLRLSCAASGSIFVTNAMGWYRQAPGKERELVAAISGGADSTYADSVKGRFTISRDNAKNTVYLQMNSLKPEDTAVYYCAAKVRGWHYYYCGQGTQVTVSS”, the “polyreactivity (PSR sort gate)” value is recorded as “low polyreactivity”.
For “QVQLVESGGGLVQAGGSLRLSCAASGSIFVTNAMGWYRQAPGKERELVAAISVSGGSTYYADSVKGRFTISRDKAKNTVYLQMNSLKPEDTAVYYCNTVRSPPGHDYWGLGTQVTVSS” the value was “low polyreactivity”; for “QVQLVESGGGLVQAGGSLRLSCAASGSIFVTYAMGWYRQAPGKERELVAAINYSGGSTYYADSVKGRFTISRDNAKNTVYLQMNSVKPEDTAVYYCAATTRYYSYGYWGQGTQVTVSS”, “low polyreactivity”.
For “QVQLVESGGGLVQAGGSLRLSCAASGSIFVTYAMGWYRQAPGKERELVASITLSGGSTYYADSVKGRFTISRDNAKNTVYFQKNSLKPEDTEVYYCNAEGTSWTSTRFDYWGQGTQVTVSS” the value was “high polyreactivity”; for “QVQLVESGGGLVQAGGSLRLSCAASGSIFVVNAMGWYRQAPGKERELVAAIRLSGGSTYYADSVKGRFTISRDNAKNTVYLQMNSLKPEDTAVYDCAARYRELRTEYYYWGQGTQVTVSS”, “high polyreactivity”.
For “QVQLVESGGGLVQAGGSLRLSCAASGSIFVVYAMGWSREGPGKERELVAAISWGIGSTYYADSVKGRFTISRDNAKNTVYLQPNSLKPEDTAVYYCAADTDIVLYDYWGQGTQVTVSS” the value was “low polyreactivity”.
Turning to “QVQLVESGGGLVQAGGSLRLSCAASGSIFVWYDLGWSRQAPGKERELVATISLSGVSTYYADSVKGRFTISRDTAKNTVYLQMISLKPEDTAVYYCAADFVEQGVDDFWGQGSQVTVSS”, the “polyreactivity (PSR sort gate)” value is recorded as “low polyreactivity”.
As to “QVQLVESGGGLVQAGGSLRLSCAASGSIFVYNAMGWYRKATGKERELVAGITFIGGSTYYADSVKGRFTISRDNAKNTVYLQMNSLKPEDTAVYYCNADVAPGIFYGYDSWGQGTQVTVSS”, the “polyreactivity (PSR sort gate)” value was “low polyreactivity”.
As to “QVQLVESGGGLVQAGGSLRLSCAASGSIFVYNAMGWYRQAPGKEREFVAAISWSVGRTYYADSVKGRFTFSRDNEKNTVYLQMNSLKPEDNAVYYCNAEFVAWYYYEEHDGDYWGQGTQVTVSS”, the “polyreactivity (PSR sort gate)” value is given as “high polyreactivity”.
